# The RNAGym collection of RNA variant scans (doi:10.7554/elife.80360)
# B1: Hairpin Ribozyme (parent)
# chain: GUCCUCUUUCACGUGCGCGUGAAAGAGAGAAGUGAACCAGAGAAACACACGUUGUGGUAUAUUACCUGGUA
# Variants of: B1
# Assay: self-cleavage, relative activity (ratio to wild type); higher = more cleavage; co-transcriptional
row,Variant,self-cleavage
1,GUCCUCAUUCACGUGCGCGUGAAAGAGACAAGUGAACCAGAGAAACACACGUUGUGGUAUAUUACCUGGUA [U7A G29C],0.149
2,GUCCUCAUUCACGUGCGCGUGAAAGAGAGAAGUAAACCAGAGAAACACACGUUGUGGUAUAUUACCUGGUA [U7A G34A],1.39
3,GUCCUCAUUCACGUGCGCGUGAAAGAGAGAAGUGAACCAAAGAAACACACGUUGUGGUAUAUUACCUGGUA [U7A G40A],0.313
4,GUCCUCAUUCACGUGCGCGUGAAAGAGAGAAGUGAACCAGAAAAACACACGUUGUGGUAUAUUACCUGGUA [U7A G42A],0.166
5,GUCCUCAUUCACGUGCGCGUGAAAGAGAGAAGUGAACCAGAGAAACACACUUUGUGGUAUAUUACCUGGUA [U7A G51U],0.866
6,GUCCUCAUUCACGUGCGCGUGAAAGAGAGAAGUGAACCAGAGAAACACACGUUCUGGUAUAUUACCUGGUA [U7A G54C],0.349
7,GUCCUCAUUCACGUGCGCGUGAAAGAGAGAAGUGAACCAGAGAAACACACGUUGUGAUAUAUUACCUGGUA [U7A G57A],0.128
8,GUCCUCAUUCACGUGCGCGUGAAAGAGAGAAGUGAACCAGAGAAACACACGUUGUGCUAUAUUACCUGGUA [U7A G57C],0.151
9,GUCCUCAUUCACGUGCGCGUGAAAGAGAGAAGUGAACCAGAGAAACACACGUUGUGGUAUAUUACCUGUUA [U7A G69U],0.271
10,GUCCUCAAUCACGUGCGCGUGAAAGAGAGAAGUGAACCAGAGAAACACACGUUGUGGUAUAUUACCUGGUA [U7A U8A],1.14
11,GUCCUCAUUCACGCGCGCGUGAAAGAGAGAAGUGAACCAGAGAAACACACGUUGUGGUAUAUUACCUGGUA [U7A U14C],0.772
12,GUCCUCAUUCACGUGCGCGAGAAAGAGAGAAGUGAACCAGAGAAACACACGUUGUGGUAUAUUACCUGGUA [U7A U20A],0.723
13,GUCCUCAUUCACGUGCGCGCGAAAGAGAGAAGUGAACCAGAGAAACACACGUUGUGGUAUAUUACCUGGUA [U7A U20C],0.774
14,GUCCUCAUUCACGUGCGCGUGAAAGAGAGAAGAGAACCAGAGAAACACACGUUGUGGUAUAUUACCUGGUA [U7A U33A],0.218
15,GUCCUCAUUCACGUGCGCGUGAAAGAGAGAAGUGAACCAGAGAAACACACGGUGUGGUAUAUUACCUGGUA [U7A U52G],0.733
16,GUCCUCAUUCACGUGCGCGUGAAAGAGAGAAGUGAACCAGAGAAACACACGUAGUGGUAUAUUACCUGGUA [U7A U53A],0.879
17,GUCCUCAUUCACGUGCGCGUGAAAGAGAGAAGUGAACCAGAGAAACACACGUCGUGGUAUAUUACCUGGUA [U7A U53C],1.07
18,GUCCUCAUUCACGUGCGCGUGAAAGAGAGAAGUGAACCAGAGAAACACACGUUGUGGUACAUUACCUGGUA [U7A U60C],0.923
19,GUCCUCAUUCACGUGCGCGUGAAAGAGAGAAGUGAACCAGAGAAACACACGUUGUGGUAGAUUACCUGGUA [U7A U60G],0.496
20,GUCCUCAUUCACGUGCGCGUGAAAGAGAGAAGUGAACCAGAGAAACACACGUUGUGGUAUACUACCUGGUA [U7A U62C],0.222
21,GUCCUCAUUCACGUGCGCGUGAAAGAGAGAAGUGAACCAGAGAAACACACGUUGUGGUAUAUAACCUGGUA [U7A U63A],0.181
22,GUCCUCAUUCACGUGCGCGUGAAAGAGAGAAGUGAACCAGAGAAACACACGUUGUGGUAUAUUACCCGGUA [U7A U67C],0.25
23,GUCCUCAUUCACGUGCGCGUGAAAGAGAGAAGUGAACCAGAGAAACACACGUUGUGGUAUAUUACCUGGCA [U7A U70C],1.04
24,GUCCUCCUUCACGUGCGCGUGAGAGAGAGAAGUGAACCAGAGAAACACACGUUGUGGUAUAUUACCUGGUA [U7C A23G],0.6
25,GUCCUCCUUCACGUGCGCGUGAUAGAGAGAAGUGAACCAGAGAAACACACGUUGUGGUAUAUUACCUGGUA [U7C A23U],0.694
26,GUCCUCCUUCACGUGCGCGUGAACGAGAGAAGUGAACCAGAGAAACACACGUUGUGGUAUAUUACCUGGUA [U7C A24C],1.04

row,Variant,self-cleavage
1,GUCCUCCUUCACGUGCGCGUGAAUGAGAGAAGUGAACCAGAGAAACACACGUUGUGGUAUAUUACCUGGUA [U7C A24U],0.707
2,GUCCUCCUUCACGUGCGCGUGAAAGAGCGAAGUGAACCAGAGAAACACACGUUGUGGUAUAUUACCUGGUA [U7C A28C],0.367
3,GUCCUCCUUCACGUGCGCGUGAAAGAGUGAAGUGAACCAGAGAAACACACGUUGUGGUAUAUUACCUGGUA [U7C A28U],0.514
4,GUCCUCCUUCACGUGCGCGUGAAAGAGAGCAGUGAACCAGAGAAACACACGUUGUGGUAUAUUACCUGGUA [U7C A30C],0.121
5,GUCCUCCUUCACGUGCGCGUGAAAGAGAGUAGUGAACCAGAGAAACACACGUUGUGGUAUAUUACCUGGUA [U7C A30U],0.257
6,GUCCUCCUUCACGUGCGCGUGAAAGAGAGAGGUGAACCAGAGAAACACACGUUGUGGUAUAUUACCUGGUA [U7C A31G],0.525
7,GUCCUCCUUCACGUGCGCGUGAAAGAGAGAUGUGAACCAGAGAAACACACGUUGUGGUAUAUUACCUGGUA [U7C A31U],0.112
8,GUCCUCCUUCACGUGCGCGUGAAAGAGAGAAGUGGACCAGAGAAACACACGUUGUGGUAUAUUACCUGGUA [U7C A35G],0.931
9,GUCCUCCUUCACGUGCGCGUGAAAGAGAGAAGUGUACCAGAGAAACACACGUUGUGGUAUAUUACCUGGUA [U7C A35U],0.523
10,GUCCUCCUUCACGUGCGCGUGAAAGAGAGAAGUGAGCCAGAGAAACACACGUUGUGGUAUAUUACCUGGUA [U7C A36G],0.925
11,GUCCUCCUUCACGUGCGCGUGAAAGAGAGAAGUGAUCCAGAGAAACACACGUUGUGGUAUAUUACCUGGUA [U7C A36U],0.466
12,GUCCUCCUUCACGUGCGCGUGAAAGAGAGAAGUGAACCAGCGAAACACACGUUGUGGUAUAUUACCUGGUA [U7C A41C],1.01
13,GUCCUCCUUCACGUGCGCGUGAAAGAGAGAAGUGAACCAGAGUAACACACGUUGUGGUAUAUUACCUGGUA [U7C A43U],0.151
14,GUCCUCCUUCACGUGCGCGUGAAAGAGAGAAGUGAACCAGAGACACACACGUUGUGGUAUAUUACCUGGUA [U7C A44C],0.0427
15,GUCCUCCUUCACGUGCGCGUGAAAGAGAGAAGUGAACCAGAGAGACACACGUUGUGGUAUAUUACCUGGUA [U7C A44G],0.0315
16,GUCCUCCUUCACGUGCGCGUGAAAGAGAGAAGUGAACCAGAGAAUCACACGUUGUGGUAUAUUACCUGGUA [U7C A45U],0.231
17,GUCCUCCUUCACGUGCGCGUGAAAGAGAGAAGUGAACCAGAGAAACGCACGUUGUGGUAUAUUACCUGGUA [U7C A47G],0.0534
18,GUCCUCCUUCACGUGCGCGUGAAAGAGAGAAGUGAACCAGAGAAACACGCGUUGUGGUAUAUUACCUGGUA [U7C A49G],0.478
19,GUCCUCCUUCACGUGCGCGUGAAAGAGAGAAGUGAACCAGAGAAACACACGUUGUGGUGUAUUACCUGGUA [U7C A59G],0.088
20,GUCCUCCUUCACGUGCGCGUGAAAGAGAGAAGUGAACCAGAGAAACACACGUUGUGGUAUGUUACCUGGUA [U7C A61G],0.164
21,GUCCUCCUUCACGUGCGCGUGAAAGAGAGAAGUGAACCAGAGAAACACACGUUGUGGUAUUUUACCUGGUA [U7C A61U],0.175
22,GUCCUCCUUCACGUGCGCGUGAAAGAGAGAAGUGAACCAGAGAAACACACGUUGUGGUAUAUUACCUGGUU [U7C A71U],0.592
23,GUCCUCCUUGACGUGCGCGUGAAAGAGAGAAGUGAACCAGAGAAACACACGUUGUGGUAUAUUACCUGGUA [U7C C10G],0.597
24,GUCCUCCUUCAGGUGCGCGUGAAAGAGAGAAGUGAACCAGAGAAACACACGUUGUGGUAUAUUACCUGGUA [U7C C12G],0.758
25,GUCCUCCUUCACGUGCGCGUGAAAGAGAGAAGUGAACGAGAGAAACACACGUUGUGGUAUAUUACCUGGUA [U7C C38G],0.202
26,GUCCUCCUUCACGUGCGCGUGAAAGAGAGAAGUGAACCAGAGAAAAACACGUUGUGGUAUAUUACCUGGUA [U7C C46A],0.224

row,Variant,self-cleavage
1,GUCCUCCUUCACGUGCGCGUGAAAGAGAGAAGUGAACCAGAGAAAUACACGUUGUGGUAUAUUACCUGGUA [U7C C46U],0.195
2,GUCCUCCUUCACGUGCGCGUGAAAGAGAGAAGUGAACCAGAGAAACAAACGUUGUGGUAUAUUACCUGGUA [U7C C48A],0.114
3,GUCCUCCUUCACGUGCGCGUGAAAGAGAGAAGUGAACCAGAGAAACAGACGUUGUGGUAUAUUACCUGGUA [U7C C48G],0.145
4,GUCCUCCUUCACGUGCGCGUGAAAGAGAGAAGUGAACCAGAGAAACACAUGUUGUGGUAUAUUACCUGGUA [U7C C50U],0.523
5,GUCCUCCUUCACGUGCGCGUGAAAGAGAGAAGUGAACCAGAGAAACACACGUUGUGGUAUAUUAACUGGUA [U7C C65A],0.684
6,GUCCUCCUUCACGUGCGCGUGAAAGAGAGAAGUGAACCAGAGAAACACACGUUGUGGUAUAUUACAUGGUA [U7C C66A],0.217
7,GUCCUCCUUCACGUGCGCGUGAAAGAGAGAAGUGAACCAGAGAAACACACGUUGUGGUAUAUUACGUGGUA [U7C C66G],0.0988
8,GUCCUCCUUCACAUGCGCGUGAAAGAGAGAAGUGAACCAGAGAAACACACGUUGUGGUAUAUUACCUGGUA [U7C G13A],0.615
9,GUCCUCCUUCACUUGCGCGUGAAAGAGAGAAGUGAACCAGAGAAACACACGUUGUGGUAUAUUACCUGGUA [U7C G13U],0.788
10,GUCCUCCUUCACGUCCGCGUGAAAGAGAGAAGUGAACCAGAGAAACACACGUUGUGGUAUAUUACCUGGUA [U7C G15C],0.948
11,GUCCUCCUUCACGUUCGCGUGAAAGAGAGAAGUGAACCAGAGAAACACACGUUGUGGUAUAUUACCUGGUA [U7C G15U],1.05
12,GUCCUCCUUCACGUGCUCGUGAAAGAGAGAAGUGAACCAGAGAAACACACGUUGUGGUAUAUUACCUGGUA [U7C G17U],0.892
13,GUCCUCCUUCACGUGCGCUUGAAAGAGAGAAGUGAACCAGAGAAACACACGUUGUGGUAUAUUACCUGGUA [U7C G19U],0.68
14,GUCCUCCUUCACGUGCGCGUUAAAGAGAGAAGUGAACCAGAGAAACACACGUUGUGGUAUAUUACCUGGUA [U7C G21U],0.565
15,GUCCUCCUUCACGUGCGCGUGAAAGAGACAAGUGAACCAGAGAAACACACGUUGUGGUAUAUUACCUGGUA [U7C G29C],0.131
16,GUCCUCCUUCACGUGCGCGUGAAAGAGAGAACUGAACCAGAGAAACACACGUUGUGGUAUAUUACCUGGUA [U7C G32C],0.141
17,GUCCUCCUUCACGUGCGCGUGAAAGAGAGAAGUAAACCAGAGAAACACACGUUGUGGUAUAUUACCUGGUA [U7C G34A],1.17
18,GUCCUCCUUCACGUGCGCGUGAAAGAGAGAAGUUAACCAGAGAAACACACGUUGUGGUAUAUUACCUGGUA [U7C G34U],1.32
19,GUCCUCCUUCACGUGCGCGUGAAAGAGAGAAGUGAACCAUAGAAACACACGUUGUGGUAUAUUACCUGGUA [U7C G40U],0.163
20,GUCCUCCUUCACGUGCGCGUGAAAGAGAGAAGUGAACCAGAGAAACACACGUUAUGGUAUAUUACCUGGUA [U7C G54A],0.525
21,GUCCUCCUUCACGUGCGCGUGAAAGAGAGAAGUGAACCAGAGAAACACACGUUGUAGUAUAUUACCUGGUA [U7C G56A],0.184
22,GUCCUCCUUCACGUGCGCGUGAAAGAGAGAAGUGAACCAGAGAAACACACGUUGUCGUAUAUUACCUGGUA [U7C G56C],0.122
23,GUCCUCCUUCACGUGCGCGUGAAAGAGAGAAGUGAACCAGAGAAACACACGUUGUGAUAUAUUACCUGGUA [U7C G57A],0.153
24,GUCCUCCUUCACGUGCGCGUGAAAGAGAGAAGUGAACCAGAGAAACACACGUUGUGCUAUAUUACCUGGUA [U7C G57C],0.107
